Broadly, the Ki is a dissociation constant, usually derived from enzyme kinetics or from competition with a known ligand. A low value points to higher affinity. One may read the koff as a measure of how fast the partners let go of each other. Read a low koff as slow dissociation. As a reminder, the kon is the second-order rate constant of association. A lower kon goes with slower complex formation.

Data on eight molecules can be found in patent US6861578B1, “Method for plant protection against insects or nematodes by transformation with a nucleic acid encoding equistatin” (Plant Research International B.V., priority 1997, dated 2005).

Like-named read-outs stand apart in the source and are kept apart here. Some results are limits rather than exact numbers.

Series [1] has as its system T1, equistatin, isolated from sea anemone Actinia equina.
T1 sequence: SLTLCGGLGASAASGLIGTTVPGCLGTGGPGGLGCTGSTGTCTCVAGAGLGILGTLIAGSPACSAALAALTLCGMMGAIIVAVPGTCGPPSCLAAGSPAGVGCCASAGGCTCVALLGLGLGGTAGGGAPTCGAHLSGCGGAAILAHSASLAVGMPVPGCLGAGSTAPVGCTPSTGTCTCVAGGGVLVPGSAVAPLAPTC

The subject of a further series is cysteine proteases. The following applies: Yamashita and Konagaya (1996); cited from earlier work.
Series [2] deals with Colorado potato beetle larval gut proteases (total gut extract, pH 3). The experiment in a line: cell-based or functional assay.
Series [3] deals with western corn rootworm (Diabrotica virgifera) third instar larval gut proteases. The experiment in a line: cell-based or functional assay.
Series [4] concerns the target T2, papain (UniProt P00784 134-345).
T2 construct: also called cysteine proteinase, papain
T2 sequence (looked up): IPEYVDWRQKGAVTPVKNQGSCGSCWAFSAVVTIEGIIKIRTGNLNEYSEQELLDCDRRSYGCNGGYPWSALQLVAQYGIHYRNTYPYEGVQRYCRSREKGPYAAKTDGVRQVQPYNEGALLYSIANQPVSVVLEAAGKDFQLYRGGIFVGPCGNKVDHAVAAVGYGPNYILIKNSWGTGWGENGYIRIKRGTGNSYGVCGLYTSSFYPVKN
Kind of series: papain titration in microtiter plate, Z-Phe-Arg-pNA substrate. On the procedure:
In a microtiterplate 20 µl papain solution (a fresh solution of 1 mg/ml (Sigma) in MES buffer titrated with E-64 to determine the active fraction, usually 17%) is combined with 0–80 µl of known protein concentration. MES buffer (50 mM MES, pH 6.5; 0.6 mg/ml L-cysteine; 1 mg/ml BSA fraction V) is added to a final volume of 150 µl. The mixture is incubated for 30 min at room temperature and subsequently 50 µl of substrate solution (60 µl of 15 mg/ml Z-Phe-Arg-pNA dissolved in methanol is diluted in 940 µl MES buffer before use). The plate is immediately placed in the nicrotiterplate reader and measured at 405 nm. Readings up to an OD600 of 0.3 are linear. Rates of change are used to determine the activity with increasing amounts of inhibitor. Results are graphically represented and at stoichiometric concentrations the amount of dissociated complex is determined to determine the apparent equilibrium dissociation constant (Ki). […] The apparent equilibrium dissociation constant for papain was estimated to be 0.6 nM in agreement with the data published for the purified protein (Lenarcic et al. (1997) J. Biol. Chem. 272: 13899–13903.

Series [5] addresses potato protease inhibitor-insensitive cysteine proteases of Colorado potato beetle (Leptinotarsa decemlineata) larval gut extracts. Kind of series: cell-based or functional assay.
Series [6] concerns the target proteases in extracts of adult western flower thrips (Frankliniella occidentalis). Kind of series: cell-based or functional assay.
The target in series [7] is proteases in extracts of adult leafminer flies (Liriomyza trifolii). Kind of series: cell-based or functional assay.
The target in series [8] is T3, cathepsin D (Homo sapiens, UniProt P07339). The experiment in a line: active site titration of cathepsin D with equistatin (FIG. 12).
Series [9] concerns the target T2, papain. Kind of series: continuous rate enzyme inhibition assay with papain; Ki = kd/ka.
The target in series [10] is T3, cathepsin D. The experiment in a line: steady state inhibition of cathepsin D hydrolysis of chromophoric substrate.
The target of series [11] is T2, papain. The experiment in a line: continuous rate enzyme inhibition assay with papain.
Series [12] deals with T3, cathepsin D. Kind of series: steady state inhibition of cathepsin D hydrolysis of chromophoric substrate. The source holds these as a separate data set.
The test system of series [13] is endoprotease activity of Colorado potato beetle larval gut extracts. The experiment in a line: Narrow spectrum endoprotease activity of Colorado potato beetle gut extract, Z-Arg-Arg-pNA. Type of series: biochemical, Leptinotarsa decemlineata. Particulars: excess inhibitor. From the text: (§1) Guts of final instar Colorado potato beetle larvae reared on methyl jasmonate induced plants were isolated and extracted essentially as described (Bolter and Jongsma, J. Insect Physiol. 41: 1071-1078). In these gut extracts the proteases that are sensitive to the protease inhibitors of potato are already complexed. The residual protease activity is composed of potato protease-inhibitor-insensitive proteases which were induced in response to the methyl jasmonate induced potato inhibitors. These proteases are the proteases that render the beetle larvae insensitive to protease inhibitor defense of the potato plant. Wle tested a broad range of different cysteisie protease inhibitors for activity specifically against these induced potato protease inhibitor-insensitive cysteine protesses. Nearly all of these inhibitors were purified at the Jozef Stefan Institute in Slovenia. Testing their potential against Colorado potato beetle was done using both general protein substrates (azocasein, table 2) as well as specific synthetic substrates (L-Arg-pNA, table 3; pGlu-Phe-Leu-pNA, table 4; Z-Phe-Arg-pNA, table 5; Z-Arg-Arg-pNA, table 6). In specific cases inhibitors were tested at two concentrations, eauimolar and in excess to the protease, in order to obtain an indication of the tightness of the complex. […] Importantly, this class of inhibitors was capable of inhibiting nearly all general cysteine protease activity. The equistatin peptide molecule and a functional derivative thereof were not very active against the aminopeptidase-like cysteine protease activity. […] The best combination of inhibitors for full toxicity against the Colorado potato beetle would therefore be a combination of equistatin or p41 invariant chain fragment and stefin-like inhibitors.

In series [14] the test system is tri-peptidil-peptidase and endoprotease activity of Colorado potato beetle larval gut extracts. Kind of series: Tri-peptidil-peptidase and endoprotease activity of Colorado potato beetle gut extract, pGlu-Phe-Leu-pNA. The format is biochemical, Leptinotarsa decemlineata.
Source text: as §1

Series [15] concerns Colorado potato beetle larval gut extracts (potato protease inhibitor-insensitive cysteine proteases). The experiment in a line: General proteolytic activity of Colorado potato beetle larval gut extracts, azocasein. Type of series: biochemical, Leptinotarsa decemlineata.
Source text: as §1

For series [16], the system named is amino-peptidase activity of Colorado potato beetle larval gut extracts. The experiment in a line: Amino-peptidase activity of Colorado potato beetle gut extract, L-Arg-pNA. The format is biochemical, Leptinotarsa decemlineata.
Source text: as §1

In series [17] the test system is endoprotease activity of Colorado potato beetle larval gut extracts. The experiment in a line: Broad spectrum endoprotease activity of Colorado potato beetle gut extract, Z-Phe-Arg-pNA. Type of series: biochemical, Leptinotarsa decemlineata.
Source text: as §1

Turning to β-trypsin, in series [1], the “limited proteolysis, reverse-phase HPLC and N-terminal sequencing” value is on record as “equistatin was found to be a good substrate for trypsin”.
With “thyroglobulin: protein containing type I repeated thyroglobulin domains [reference compound]”, the “inhibition of cysteine proteases” value in the series on cysteine proteases is recorded as “do not inhibit”.

B1: recombinant equistatin (expressed in E. coli from pB3-equistatin, purified on papain-sepharose) (other, not shown: large carriers; small tags and cut ends)
chain: SLTKCQQLQASANSGLIGTYVPQCKETGEFEEKQCWGSTGYCWCVDEDGKEILGTKIRGSPDCSRRKAALTLCQMMQAIIVNVPGWCGPPSCKADGSFDEVQCCASNGECYCVDKKGKELEGTRQQGRPTCERHLSECEEARIKAHSNSLRVEMFVPECLEDGSYNPVQCWPSTGYCWCVDEGGVKVPGSDVRFKRPTC
notes: also called EI
In the case of B1, in series [2], the inhibition of total protease activity (FITC-hemoglobin), pH 3 was 62 % inhibition and the residual protease activity (FITC-hemoglobin), pH 3 (% residual activity) worked out at 36. In series [3], this molecule gave a residual protease activity (FITC-hemoglobin), pH 3 (% residual activity) of 2 and a residual protease activity (FITC-hemoglobin), pH 6.5 (% residual activity) of 7. Besides, the Ki with papain [4] came to 0.0006 µM.

B2: equistatin, isolated from sea anemone Actinia equina (protein)
chain: SLTLCGGLGASAASGLIGTTVPGCLGTGGPGGLGCTGSTGTCTCVAGAGLGILGTLIAGSPACSAALAALTLCGMMGAIIVAVPGTCGPPSCLAAGSPAGVGCCASAGGCTCVALLGLGLGGTAGGGAPTCGAHLSGCGGAAILAHSASLAVGMPVPGCLGAGSTAPVGCTPSTGTCTCVAGGGVLVPGSAVAPLAPTC
In the case of B2, in series [5], the residual amino-peptidase activity (L-Arg-pNA), equimolar inhibitor (% of residual activity) was found to be 85; the residual amino-peptidase activity (L-Arg-pNA), excess inhibitor (% of residual activity) was 75; the residual broad spectrum endoprotease activity (Z-Phe-Arg-pNA), equimolar inhibitor (% of residual activity) amounted to 30; the residual broad spectrum endoprotease activity (Z-Phe-Arg-pNA), excess inhibitor (% of residual activity) came out at 20. Also, in series [5], the residual general proteolytic activity (azocasein) in excess of inhibitor (% residual activity) was determined as 10; the residual narrow spectrum endoprotease activity (Z-Arg-Arg-pNA), equimolar inhibitor (% of residual activity) was 20; the residual narrow spectrum endoprotease activity (Z-Arg-Arg-pNA), excess inhibitor (% of residual activity) is -5; the residual tri-peptidil-peptidase and endoprotease activity (pGlu-Phe-Leu-pNA), equimolar inhibitor (% of residual activity) was 10. The molecule further gave a residual tri-peptidil-peptidase and endoprotease activity (pGlu-Phe-Leu-pNA), excess inhibitor (% of residual activity) in [5] of -5. Also, in series [6], the residual protease activity (FITC-hemoglobin), pH 3.5 (% residual activity) was found to be 5. Besides, the residual protease activity (FITC-hemoglobin), pH 3.5 (% residual activity) in series [7] was 24. This molecule also registered a binding stoichiometry (mol equistatin per mol cathepsin D) in the series with cathepsin D [8] of 1. Moreover, in the series with papain [9], the Ki is 0.00057 µM. The molecule further registered a Ki with cathepsin D [10] of 0.0003 µM. Moreover, in the series with papain [11], the koff is 0.0065 s⁻¹ and the kon amounted to 1.2e+07 M⁻¹ s⁻¹.

B3: combined second and third domain of equistatin (eq d-2,3) (protein)
chain: AALTLCGMMGAIIVAVPGTCGPPSCLAAGSPAGVGCCASAGGCTCVALLGLGLGGTAGGGAPTCGAHLSGCGGAAILAHSASLAVGMPVPGCLGAGSTAPVGCTPSTGTCTCVAGGGVLVPGSAVAPLAPTC
With B3, the Ki was over 0.0006 µM with cathepsin D [12], 0.0004 µM with cathepsin D [10] and over 1 µM with papain [11].

B4: entactin: protein with domains homologous to type I repeated thyroglobulin domains (protein, UniProt P14543 29-1247, looked up)
Nidogen-1: LSRQELFPFGPGQGDLELEDGDDFVSPALELSGALRFYDRSDIDAVYVTTNGIIATSEPPAKESHPGLFPPTFGAVAPFLADLDTTDGLGKVYYREDLSPSITQRAAECVHRGFPEISFQPSSAVVVTWESVAPYQGPSRDPDQKGKRNTFQAVLASSDSSSYAIFLYPEDGLQFHTTFSKKENNQVPAVVAFSQGSVGFLWKSNGAYNIFANDRESVENLAKSSNSGQQGVWVFEIGSPATTNGVVPADVILGTEDGAEYDDEDEDYDLATTRLGLEDVGTTPFSYKALRRGGADTYSVPSVLSPRRAATERPLGPPTERTRSFQLAVETFHQQHPQVIDVDEVEETGVVFSYNTDSRQTCANNRHQCSVHAECRDYATGFCCSCVAGYTGNGRQCVAEGSPQRVNGKVKGRIFVGSSQVPIVFENTDLHSYVVMNHGRSYTAISTIPETVGYSLLPLAPVGGIIGWMFAVEQDGFKNGFSITGGEFTRQAEVTFVGHPGNLVIKQRFSGIDEHGHLTIDTELEGRVPQIPFGSSVHIEPYTELYHYSTSVITSSSTREYTVTEPERDGASPSRIYTYQWRQTITFQECVHDDSRPALPSTQQLSVDSVFVLYNQEEKILRYALSNSIGPVREGSPDALQNPCYIGTHGCDTNAACRPGPRTQFTCECSIGFRGDGRTCYDIDECSEQPSVCGSHTICNNHPGTFRCECVEGYQFSDEGTCVAVVDQRPINYCETGLHNCDIPQRAQCIYTGGSSYTCSCLPGFSGDGQACQDVDECQPSRCHPDAFCYNTPGSFTCQCKPGYQGDGFRCVPGEVEKTRCQHEREHILGAAGATDPQRPIPPGLFVPECDAHGHYAPTQCHGSTGYCWCVDRDGREVEGTRTRPGMTPPCLSTVAPPIHQGPAVPTAVIPLPPGTHLLFAQTGKIERLPLEGNTMRKTEAKAFLHVPAKVIIGLAFDCVDKMVYWTDITEPSIGRASLHGGEPTTIIRQDLGSPEGIAVDHLGRNIFWTDSNLDRIEVAKLDGTQRRVLFETDLVNPRGIVTDSVRGNLYWTDWNRDNPKIETSYMDGTNRRILVQDDLGLPNGLTFDAFSSQLCWVDAGTNRAECLNPSQPSRRKALEGLQYPFAVTSYGKNLYFTDWKMNSVVALDLAISKETDAFQPHKQTRLYGITTALSQCPQGHNYCSVNNGGCTHLCLATPGSRTCRCPDNTLGVDCIEQK
In the case of B4, the “inhibition of cysteine proteases” value in the series on cysteine proteases was “do not inhibit”.

B5: first domain of equistatin (eq d-1) (protein)
chain: SLTLCGGLGASAASGLIGTTVPGCLGTGGPGGLGCTGSTGTCTCVAGAGLGILGTLIAGSPACSAAL
Consider B5, for which the values for the Ki with cathepsin D [12], with papain [9] and with cathepsin D [10] were 1000 µM, 0.00061 µM and over 1 µM, respectively. Further, in the series with papain [11], the koff was determined as 0.0011 s⁻¹. In the series with papain [11], this molecule showed a kon of 1.8e+06 M⁻¹ s⁻¹.

B6: human stefin A: Type I cystatin (protein, UniProt P01040 1-98, looked up)
Cystatin-A: MIPGGLSEAKPATPEIQEIVDKVKPQLEEKTNETYGKLEAVQYKTQVVAGTNYYIKVRAGDNKYMHLKVFKSLPGQNEDLVLTGYQVDKNKDDELTGF
Regarding B6, the “% of residual activity, excess inhibitor” value in series [13] was 90%; in series [14] (excess inhibitor), 90%; in series [16] (excess inhibitor), 10%; in series [17] (excess inhibitor), 80%. For the same molecule, the “% of residual activity, equimolar” value in series [14] (equimolar) stood at 95%; in series [16] (equimolar) it was 60%; in series [17] (equimolar), 95%. In addition, the “Residual activity in excess of inhibitor” value in [15] came out at 90%.
